The values below come from US20090155236A1, “Peptide sequence for modulation of delta protein kinase c” (NATIONAL INSTITUES OF HEALTH (NIH), U.S. DEPT OF HEALTH AND …, priority 2004, published 2009).

The target of data set [1] is T1, delta V1 PKC (Rattus norvegicus, UniProt P09215).
T1 construct: MBP (printed as 'myelin basic protein'); made in house
As to the kind of experiment: ELISA binding of annexin V protein to delta V1 PKC. The following applies: FIG. 2. From the text: In another study, binding of annexin V protein to the V1 regions of epsilon PKC (SEQ ID NO:7) and of delta PKC (SEQ ID NO:4) was examined using ELISA, as described in Example 2. […] Binding of annexin V protein (SEQ ID NO:2) to delta V1 PKC in the absence of calcium was about 55%. In the presence of calcium binding was increased to 100%. […] Thus, annexin V protein binds to full-length PCK and to the V1 and V5 domains of delta PKC in vitro in an isozyme specific manner.
(§1) Annexin V (SEQ ID NO:2) was diluted in 100 mM carbonate buffer (pH=9.6) and 100 μl of the diluted solution is placed in each well of a microtiter plate to give 0.1 μg Annexin V per well. The plate was incubated overnight at 4° C. After the overnight incubation, the plate was blocked for 1 hour at room temperature with 200 μL/well of 1% bovine serum albumin (BSA).
The interaction partners, delta PKC (SEQ ID NO:3), delta V1 PKC (SEQ ID NO:4), and delta V5 PKC (SEQ ID NO:5), were diluted in 100 mM HEPES. For the full length delta PKC, approximately 1.5 μg/well (1:20 dilution of cell lysate) was added. For the delta V1 and delta V5 PKC regions, between about 8000-80 ng/well was added, with an intermediate concentration being sufficient. […]
(§2) A developing reagent was added (100 μL/well): 1 PNPP tablet per 5 mL diluted buffer. 2N NaOH was added and the plate was allowed to develop and then read at 405 nm (single wavelength).

For data set [2], the target named is T2, delta PKC (Homo sapiens, UniProt Q05655).
T2 construct: purchased Panvera LLC, now Invitrogen Corporation
T2 sequence (Q05655 whole entry): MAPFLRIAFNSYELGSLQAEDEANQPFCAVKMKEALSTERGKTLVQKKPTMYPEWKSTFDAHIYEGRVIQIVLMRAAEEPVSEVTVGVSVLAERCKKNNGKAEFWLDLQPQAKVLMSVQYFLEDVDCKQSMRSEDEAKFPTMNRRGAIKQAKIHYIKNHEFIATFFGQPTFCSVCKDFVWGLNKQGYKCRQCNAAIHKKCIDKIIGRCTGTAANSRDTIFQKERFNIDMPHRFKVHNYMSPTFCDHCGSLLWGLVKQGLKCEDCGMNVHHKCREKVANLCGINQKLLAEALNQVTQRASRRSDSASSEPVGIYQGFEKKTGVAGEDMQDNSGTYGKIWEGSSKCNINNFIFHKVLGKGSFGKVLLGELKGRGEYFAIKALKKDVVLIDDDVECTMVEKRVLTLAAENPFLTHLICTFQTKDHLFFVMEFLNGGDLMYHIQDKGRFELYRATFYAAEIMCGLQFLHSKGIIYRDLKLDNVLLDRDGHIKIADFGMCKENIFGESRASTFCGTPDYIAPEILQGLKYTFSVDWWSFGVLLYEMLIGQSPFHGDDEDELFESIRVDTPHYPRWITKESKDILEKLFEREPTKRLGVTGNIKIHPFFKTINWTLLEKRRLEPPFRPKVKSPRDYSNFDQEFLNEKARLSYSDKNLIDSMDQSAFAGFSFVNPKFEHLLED
The data set can be described thus: In vitro kinase assay, histone phosphorylation by delta PKC. The following applies: in the presence of PS/DAG, FIG. 4A. It is filed as biochemical. How it is done:
(§3) In another study, the ability of annexin V to increase the catalytic activity of delta PKC in vitro was evaluated. Full-length, recombinant delta PKC (SEQ ID NO:3) and epsilon PKC (SEQ ID NO:6) were separately incubated in the presence of kinase buffer, ATP, or histone, as described in Example 3. Activators of PKC, phosphatidylserine (PS) and diacylglycerol (DAG), were added along with annexin V, JTV-519, a 1,4 benzothiazepine derivative that activates delta PKC (Inagaki, K. et al., Circulation, 101:797 (2000)), or a mixture of annexin V and JTV-519.
(§4) 200 ng of pure delta PKC or epsilon PKC (Panvera LLC, now Invitrogen Corporation, Carlsbad, Calif.) were incubated in 100 μL kinase buffer (20 mM Tris pH 7.4, 50 mM MgCl2, 0.3 μCi/reaction [γ-^32P]ATP (Amersham Biosciences), 9 μM/reaction ATP (Sigma), 30 μg/reaction myelin basic protein or histone A1 (Sigma); 100 μM lipid vesicle mixture (90% phosphatidylserine (PS): 10% diacylglycerol (DAG)), 1 mM CaCl2, 1 μM JTV519, and/or 20 ng of Annexin V/reaction were added, where applicable. The kinase reaction was stopped by the addition of SDS sample buffer, and extent of histone phosphorylation assessed after separation on 15% SDS-PAGE and transfer onto nitrocellulose membrane by autoradiography.

The target of data set [3] is T3, delta PKC (Rattus norvegicus, UniProt P09215). The data set can be described thus: Overlay assay, immobilized annexin V with delta PKC, delta V1 and delta V5 domains. Set-up: made in house; host or cells: crude bacterial cell lysate (not clear whether this also covers the full-length protein). It is filed as binding. From the text: (§5) Initial studies were designed to evaluate binding of annexin V to delta PKC, to certain regions of delta PKC (V1 and V5 regions), and to epsilon PKC. In a study detailed in Example 1, an overlay assay using immobilized annexin V (SEQ ID NO:2) and recombinant full-length delta PKC (SEQ ID NO:3), purified full-length epsilon PKC (SEQ ID NO:6), the recombinant V1 region of delta PKC (“V1 delta PKC”, SEQ ID NO:4), and the recombinant V5 region of delta PKC (“V5 delta PKC”, SEQ ID NO:5) was done. The V1 delta PKC peptide conjugated to […] to form a fusion protein, and the V5 delta PKC peptide was conjugated to glutathione-S-transferase to form a fusion protein.
10 μg of annexin V (SEQ ID NO:2) was separated on 12% SDS-PAGE gel and transferred to nitrocellulose, and then cut into strips. The strips were incubated with blocking buffer (50 mM Tris pH 7.5, 200 mM NaCl, 3% bovine serum albumin, 0.1% PEG20). The strips were then incubated in overlay buffer (50 mM Tris pH 7.5, 200 mM NaCl, 1% PEG20, 12 mM β-mercaptoethanol) in the presence where appropriate of 30 μg crude bacterial cell lysate containing fusion proteins of […] V1 PKC (MBP-δV1), glutathione-S-transferase-delta V5 PKC (GST-δV5), and full length sequences of delta (δPKC, SEQ ID NO:3) or rat purified epsilon (εPKC, SEQ ID NO:6) at 37° C. for 30 min. The strips where then washed with wash buffer (50 mM Tris pH 7.5, 200 mM NaCl, 0.1% PEG20, 12 mM O-mercaptoethanol), and then incubated with fixative (0.2% formaldehyde in PBS) and neutralizing solution (0.2M glycine in PBS) at room temperature 20 min each. After washing with buffer, the strips were probed with antibodies according to the overlay protein, and resulting bands visualized using ECL Western blotting.

For data set [4], the target named is T3, delta PKC. The data set can be described thus: ELISA binding of annexin I and annexin V to delta PKC. The following applies: FIG. 3.
Source text: Annexin V binds with higher affinity to delta PKC than does annexin I (SEQ ID NO:9), as was shown in another study presented in FIG. 3. The percent binding of annexin 1 and annexin V to delta PKC (SEQ ID NO:3) in the presence and absence of calcium was investigated using ELISA (Example 2). […] In the presence of calcium the binding increased to 100%. In contrast, annexin I binding to delta PKC was unaffected by the presence of calcium and remained at about 70% both in the absence and presence of calcium.
as §1
The interaction partners, delta PKC (SEQ ID NO:3), delta V1 PKC (SEQ ID NO:4), and delta V5 PKC (SEQ ID NO:5), were diluted in 100 mM HEPES. For the full length delta PKC, approximately 1.5 μg/well (1:20 dilution of cell lysate) was added. For the delta V1 and delta V5 PKC regions, between about 8000-80 ng/well was added, with an intermediate concentration being sufficient. Signal to noise increased dramatically at higher concentrations; therefore, 8 μg/well was preferred (this corresponds to 1:40 dilution of cell lysate). 100 μL/well, 1 hour w/shaking. Binding was accelerated at 37° C., however room temperature was also sufficient for binding.
After 1 hour shaking, the plate was washed three times with 100 mM HEPES (200 μL/well×3), with 5 minutes for each wash, with shaking.
Next, a primary antibody in milk (usually 1:1000 dilution) was added, followed by 1 hour at room temperature with shaking. The plate was then washed three times, (200 μL/well×3) with PBS Tween (0.1% Tween), with 5 minutes per wash with shaking.
Then, the secondary antibody diluted in PBS Tween (usually 1:1000) was added, followed by 1 hour at room temperature with shaking. The plate was then washed three times (200 μL/well×3) with PBS Tween, with 5 minutes per wash with shaking.
as §2
Target sequence in this assay (P09215 with tags, fused parts or gaps with the stated changes limits assumed): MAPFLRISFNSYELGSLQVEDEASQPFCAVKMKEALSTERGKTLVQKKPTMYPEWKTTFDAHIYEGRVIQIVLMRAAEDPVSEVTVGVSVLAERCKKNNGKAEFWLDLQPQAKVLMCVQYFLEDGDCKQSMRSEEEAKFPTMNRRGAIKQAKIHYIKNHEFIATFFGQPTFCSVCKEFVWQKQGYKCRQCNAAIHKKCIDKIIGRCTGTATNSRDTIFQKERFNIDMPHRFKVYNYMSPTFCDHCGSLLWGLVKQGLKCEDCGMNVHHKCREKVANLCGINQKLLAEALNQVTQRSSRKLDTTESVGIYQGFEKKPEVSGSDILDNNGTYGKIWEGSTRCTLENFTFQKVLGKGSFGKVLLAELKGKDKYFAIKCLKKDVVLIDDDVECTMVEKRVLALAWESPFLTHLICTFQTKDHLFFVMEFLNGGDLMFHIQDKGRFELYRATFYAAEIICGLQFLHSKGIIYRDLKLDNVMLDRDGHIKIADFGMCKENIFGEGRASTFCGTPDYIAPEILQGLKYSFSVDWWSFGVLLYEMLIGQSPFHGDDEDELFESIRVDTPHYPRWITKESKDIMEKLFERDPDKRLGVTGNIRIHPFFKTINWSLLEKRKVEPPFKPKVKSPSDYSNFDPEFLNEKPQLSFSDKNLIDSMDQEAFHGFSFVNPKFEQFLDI

In data set [5] the target is T4, epsilon PKC (Rattus norvegicus, UniProt P09216).
T4 sequence (P09216 1-737): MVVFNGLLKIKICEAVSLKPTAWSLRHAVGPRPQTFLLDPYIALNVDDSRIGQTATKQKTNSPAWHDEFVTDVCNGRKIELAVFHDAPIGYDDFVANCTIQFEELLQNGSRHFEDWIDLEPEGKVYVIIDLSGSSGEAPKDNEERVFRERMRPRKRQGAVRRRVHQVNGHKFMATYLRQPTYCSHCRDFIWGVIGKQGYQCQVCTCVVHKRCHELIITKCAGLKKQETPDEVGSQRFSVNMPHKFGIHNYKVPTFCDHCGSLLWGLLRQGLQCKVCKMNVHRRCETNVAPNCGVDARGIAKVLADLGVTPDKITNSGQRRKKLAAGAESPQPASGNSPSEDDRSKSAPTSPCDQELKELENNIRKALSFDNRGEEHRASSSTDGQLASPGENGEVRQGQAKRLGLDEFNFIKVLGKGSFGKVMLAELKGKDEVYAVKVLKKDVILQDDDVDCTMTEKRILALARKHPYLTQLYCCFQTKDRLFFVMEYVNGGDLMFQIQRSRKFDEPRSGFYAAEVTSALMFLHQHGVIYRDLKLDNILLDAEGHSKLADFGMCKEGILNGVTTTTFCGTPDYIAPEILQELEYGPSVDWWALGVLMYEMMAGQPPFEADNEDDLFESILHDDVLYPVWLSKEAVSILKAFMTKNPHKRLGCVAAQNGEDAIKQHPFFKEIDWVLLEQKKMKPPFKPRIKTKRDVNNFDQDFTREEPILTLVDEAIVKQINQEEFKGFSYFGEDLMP
The data set can be described thus: Overlay assay, immobilized annexin V with epsilon PKC. To be noted: FIG. 1. It is filed as binding.
Source text: as §5
10 μg of annexin V (SEQ ID NO:2) was separated on 12% SDS-PAGE gel and transferred to nitrocellulose, and then cut into strips. The strips were incubated with blocking buffer (50 mM Tris pH 7.5, 200 mM NaCl, 3% bovine serum albumin, 0.1% PEG20). The strips were then incubated in overlay buffer (50 mM Tris pH 7.5, 200 mM NaCl, 1% PEG20, 12 mM β-mercaptoethanol) in the presence where appropriate of 30 μg crude bacterial cell lysate containing fusion proteins of […] V1 PKC (MBP-δV1), glutathione-S-transferase-delta V5 PKC (GST-δV5), and full length sequences of delta (δPKC, SEQ ID NO:3) or rat purified epsilon (εPKC, SEQ ID NO:6) at 37° C. for 30 min. […]

Data set [6] deals with T5, epsilon PKC (Homo sapiens, UniProt Q02156).
T5 construct: purchased Panvera LLC, now Invitrogen Corporation
T5 sequence (Q02156 with tags, fused parts or gaps DEL296-297/G298R): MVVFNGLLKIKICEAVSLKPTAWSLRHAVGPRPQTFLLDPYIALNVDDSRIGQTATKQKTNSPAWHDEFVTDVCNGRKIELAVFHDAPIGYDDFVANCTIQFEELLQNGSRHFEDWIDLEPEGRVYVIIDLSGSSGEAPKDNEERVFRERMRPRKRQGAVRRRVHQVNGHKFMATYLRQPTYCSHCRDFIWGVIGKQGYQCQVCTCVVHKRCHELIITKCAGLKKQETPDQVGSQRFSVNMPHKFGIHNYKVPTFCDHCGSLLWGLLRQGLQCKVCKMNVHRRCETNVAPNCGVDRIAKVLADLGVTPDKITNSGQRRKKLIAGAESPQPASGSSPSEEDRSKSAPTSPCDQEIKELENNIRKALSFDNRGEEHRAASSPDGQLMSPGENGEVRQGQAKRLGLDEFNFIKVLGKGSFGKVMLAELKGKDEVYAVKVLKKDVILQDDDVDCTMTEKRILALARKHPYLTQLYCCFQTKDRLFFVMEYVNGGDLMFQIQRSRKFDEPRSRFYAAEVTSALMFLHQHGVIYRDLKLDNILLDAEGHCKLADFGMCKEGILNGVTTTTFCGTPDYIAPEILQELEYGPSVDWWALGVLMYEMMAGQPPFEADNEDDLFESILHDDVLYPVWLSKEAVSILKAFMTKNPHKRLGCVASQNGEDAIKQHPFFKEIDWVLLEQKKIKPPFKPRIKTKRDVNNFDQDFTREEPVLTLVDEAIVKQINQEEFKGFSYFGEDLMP
As to the kind of experiment: In vitro kinase assay, histone phosphorylation by epsilon PKC. It is filed as biochemical. To be noted: in the presence of PS/DAG, FIG. 4B. How it is done:
as §3, §4

T1 sequence (P09215 1-160): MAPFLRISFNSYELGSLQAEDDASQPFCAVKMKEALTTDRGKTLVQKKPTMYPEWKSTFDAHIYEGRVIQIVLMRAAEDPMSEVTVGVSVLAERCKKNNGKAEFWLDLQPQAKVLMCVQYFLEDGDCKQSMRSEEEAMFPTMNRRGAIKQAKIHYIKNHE

B1: annexin V: human annexin V protein (protein, listed as Homo sapiens)
chain: MAQVLRGTVTDFPGFDERADAETLRKAMKGLGTDEESILTLLTSRSNAQRQEISAAFKTLFGRDLLDDLKSELTGKFEKLIVALMKPSRLYDAYELKHALKGAGTNEKVLTEIIASRTPEELRAIKQVYEEEYGSSLEDDVVGDTSGYYQRMLVVLLQANRDPDAGIDEAQVEQDAQALFQAGELKWGTDEEKFITIFGTRSVSHLRKVFDKYMTISGFQIEETIDRETSGNLEQLLLAVVKSIRSIPAYLAETLYYAMKGAGTDDHTLIRVMVSRSEIDLFNIRKEFRKNFATSKMIKGDTSGDYKKALLLLCGEDD
Regarding B1, the “percent binding to delta V1 PKC” value in data set [1] (absence of calcium) is listed as “about 55%”; in data set [1] (presence of calcium) it was 100%. Also, the “catalytic activity of delta PKC (histone phosphorylation)” value in data set [2] is reported as “increases the catalytic activity of delta PKC”. Moreover, the “binding of V5 domain of delta PKC to annexin V” value in data set [3] (FIG. 1, GST-delta V5 fusion protein) was “bound to annexin V”. Further, in data set [3] (FIG. 1, MBP-delta V1 fusion protein), the “binding of V1 domain of delta PKC to annexin V” value was “bound to annexin V”. Also, in data set [3] (FIG. 1, full-length delta PKC), the “binding of full-length delta PKC to annexin V” value is listed as “bound to annexin V”. The “percent binding to delta PKC” value in data set [4] (absence of calcium) is recorded as “about 75%”; in data set [4] (presence of calcium), 100%. The “binding of epsilon PKC to annexin V” value in data set [5] is given as “did not bind”. For the same molecule, the “activity of epsilon PKC (histone phosphorylation)” value in data set [6] is listed as “does not increase the activity of epsilon PKC”.

B2: annexin I: human annexin I protein (protein, listed as Homo sapiens)
chain: MAMVSEFLKQAWFIENEEQEYVQTVKSSKGGPGSAVSPYPTFNPSSDVAALHKAIMVKGVDEATIIDILTKRNNAQRQQIKAAYLQETGKPLDETLKKALTGHLEEVVLALLKTPAQFDADELRAAMKGLGTDEDTLIEILASRTNKEIRDINRVYREELKRDLAKDITSDTSGDFRNALLSLAKGDRSEDFGVNEDLADSDARALYEAGERRKGTDVNVFNTILTTRSYPQLRRVFQKYTKYSKHDMNKVLDLELKGDIEKCLTAIVKCATSKPAFFAEKLHQAMKGVGTRHKALIRIMVSRSEIDMNDIKAFYQKMYGISLCQAILDETKGDYEKILVALCGGN
With B2, the “percent binding to delta PKC” value in data set [4] (absence of calcium) and in data set [4] (presence of calcium) was “about 70%” in each case.
